Test results as given in the Human Domainome abundance scans (Beltran et al. 2025).
± gives the uncertainty stated by the source.

Assay: abundance fitness (aPCA) (normalised: wild type 0, dead -1); higher = more abundant; growth selection in yeast, the domain comes from the species named
Conditions: Saccharomyces cerevisiae (strain ATCC 204508 / S288c)

In order of falling abundance fitness:
1. E3 ubiquitin-protein ligase RSP5 G324K, P39940  0.284 ± 0.14
2. E3 ubiquitin-protein ligase RSP5 G324E, P39940  0.216 ± 0.071
3. E3 ubiquitin-protein ligase RSP5 G324C, P39940  0.204 ± 0.12
4. E3 ubiquitin-protein ligase RSP5 F341N, P39940  0.189 ± 0.11
5. E3 ubiquitin-protein ligase RSP5 G324N, P39940  0.182 ± 0.12
6. E3 ubiquitin-protein ligase RSP5 G329Q, P39940  0.18 ± 0.096
7. E3 ubiquitin-protein ligase RSP5 G329D, P39940  0.149 ± 0.066
8. E3 ubiquitin-protein ligase RSP5 G325M, P39940  0.137 ± 0.095
9. E3 ubiquitin-protein ligase RSP5 G324M, P39940  0.105 ± 0.12
10. E3 ubiquitin-protein ligase RSP5 G329S, P39940  0.103 ± 0.054
11. E3 ubiquitin-protein ligase RSP5 G329N, P39940  0.1 ± 0.069
12. E3 ubiquitin-protein ligase RSP5 G324S, P39940  0.097 ± 0.092
13. E3 ubiquitin-protein ligase RSP5 G329E, P39940  0.096 ± 0.055
14. E3 ubiquitin-protein ligase RSP5 F349Y, P39940  0.086 ± 0.072
15. E3 ubiquitin-protein ligase RSP5 G329C, P39940  0.077 ± 0.082
16. E3 ubiquitin-protein ligase RSP5 G325T, P39940  0.071 ± 0.097
17. E3 ubiquitin-protein ligase RSP5 G325S, P39940  0.069 ± 0.094
18. E3 ubiquitin-protein ligase RSP5 G329T, P39940  0.063 ± 0.071
19. E3 ubiquitin-protein ligase RSP5 G329M, P39940  0.061 ± 0.098
20. E3 ubiquitin-protein ligase RSP5 G324D, P39940  0.06 ± 0.065
21. E3 ubiquitin-protein ligase RSP5 G331D, P39940  0.059 ± 0.087
22. E3 ubiquitin-protein ligase RSP5 G325D, P39940  0.051 ± 0.051
23. E3 ubiquitin-protein ligase RSP5 F341Y, P39940  0.048 ± 0.054
24. E3 ubiquitin-protein ligase RSP5 G329A, P39940  0.037 ± 0.044
25. E3 ubiquitin-protein ligase RSP5 G325L, P39940  0.029 ± 0.11
26. E3 ubiquitin-protein ligase RSP5 F341V, P39940  0.019 ± 0.043
27. E3 ubiquitin-protein ligase RSP5 G325I, P39940  0.018 ± 0.092
28. E3 ubiquitin-protein ligase RSP5 G324V, P39940  0.005 ± 0.11
29. E3 ubiquitin-protein ligase RSP5 G324A, P39940  0.004 ± 0.084
30. E3 ubiquitin-protein ligase RSP5 F341T, P39940  0.003 ± 0.067
31. E3 ubiquitin-protein ligase RSP5 G329V, P39940  -0.006 ± 0.042
32. E3 ubiquitin-protein ligase RSP5 F349W, P39940  -0.008 ± 0.052
33. E3 ubiquitin-protein ligase RSP5 G325C, P39940  -0.008 ± 0.071
34. E3 ubiquitin-protein ligase RSP5 G331H, P39940  -0.009 ± 0.15
35. E3 ubiquitin-protein ligase RSP5 G331N, P39940  -0.01 ± 0.1
36. E3 ubiquitin-protein ligase RSP5 G331M, P39940  -0.02 ± 0.055
37. E3 ubiquitin-protein ligase RSP5 G325V, P39940  -0.021 ± 0.045
38. E3 ubiquitin-protein ligase RSP5 G329R, P39940  -0.021 ± 0.043
39. E3 ubiquitin-protein ligase RSP5 G329F, P39940  -0.026 ± 0.091
40. E3 ubiquitin-protein ligase RSP5 G325E, P39940  -0.031 ± 0.067
41. E3 ubiquitin-protein ligase RSP5 G331A, P39940  -0.034 ± 0.042
42. E3 ubiquitin-protein ligase RSP5 G325H, P39940  -0.035 ± 0.099
43. E3 ubiquitin-protein ligase RSP5 G324T, P39940  -0.04 ± 0.11
44. E3 ubiquitin-protein ligase RSP5 G325A, P39940  -0.046 ± 0.051
45. E3 ubiquitin-protein ligase RSP5 G329H, P39940  -0.046 ± 0.083
46. E3 ubiquitin-protein ligase RSP5 F341R, P39940  -0.053 ± 0.045
47. E3 ubiquitin-protein ligase RSP5 G325Y, P39940  -0.057 ± 0.083
48. E3 ubiquitin-protein ligase RSP5 G325R, P39940  -0.063 ± 0.047
49. E3 ubiquitin-protein ligase RSP5 F341W, P39940  -0.064 ± 0.056
50. E3 ubiquitin-protein ligase RSP5 F341S, P39940  -0.066 ± 0.06
51. E3 ubiquitin-protein ligase RSP5 G331I, P39940  -0.071 ± 0.068
52. E3 ubiquitin-protein ligase RSP5 G331V, P39940  -0.083 ± 0.047
53. E3 ubiquitin-protein ligase RSP5 G331T, P39940  -0.09 ± 0.046
54. E3 ubiquitin-protein ligase RSP5 G331C, P39940  -0.095 ± 0.09
55. E3 ubiquitin-protein ligase RSP5 G331L, P39940  -0.095 ± 0.046
56. E3 ubiquitin-protein ligase RSP5 G324R, P39940  -0.099 ± 0.066
57. E3 ubiquitin-protein ligase RSP5 G329P, P39940  -0.113 ± 0.052
58. E3 ubiquitin-protein ligase RSP5 G331K, P39940  -0.121 ± 0.046
59. E3 ubiquitin-protein ligase RSP5 G331F, P39940  -0.126 ± 0.084
60. E3 ubiquitin-protein ligase RSP5 G331E, P39940  -0.127 ± 0.049
61. E3 ubiquitin-protein ligase RSP5 G329L, P39940  -0.129 ± 0.047
62. E3 ubiquitin-protein ligase RSP5 G325F, P39940  -0.132 ± 0.065
63. E3 ubiquitin-protein ligase RSP5 G329W, P39940  -0.139 ± 0.058
64. E3 ubiquitin-protein ligase RSP5 G325W, P39940  -0.141 ± 0.099
65. E3 ubiquitin-protein ligase RSP5 G325Q, P39940  -0.151 ± 0.1
66. E3 ubiquitin-protein ligase RSP5 G336H, P39940  -0.157 ± 0.2
67. E3 ubiquitin-protein ligase RSP5 G331R, P39940  -0.17 ± 0.041
68. E3 ubiquitin-protein ligase RSP5 G324P, P39940  -0.178 ± 0.1
69. E3 ubiquitin-protein ligase RSP5 G331S, P39940  -0.186 ± 0.046
70. E3 ubiquitin-protein ligase RSP5 G331Y, P39940  -0.202 ± 0.17
71. E3 ubiquitin-protein ligase RSP5 G331P, P39940  -0.249 ± 0.07
72. E3 ubiquitin-protein ligase RSP5 G325P, P39940  -0.252 ± 0.072
73. E3 ubiquitin-protein ligase RSP5 G336Q, P39940  -0.271 ± 0.079
74. E3 ubiquitin-protein ligase RSP5 G336K, P39940  -0.302 ± 0.062
75. E3 ubiquitin-protein ligase RSP5 G324L, P39940  -0.328 ± 0.13
76. E3 ubiquitin-protein ligase RSP5 G331W, P39940  -0.329 ± 0.049
77. E3 ubiquitin-protein ligase RSP5 G329Y, P39940  -0.337 ± 0.39
78. E3 ubiquitin-protein ligase RSP5 G324W, P39940  -0.344 ± 0.086
79. E3 ubiquitin-protein ligase RSP5 G336D, P39940  -0.368 ± 0.07
80. E3 ubiquitin-protein ligase RSP5 G336C, P39940  -0.427 ± 0.063
81. E3 ubiquitin-protein ligase RSP5 G336A, P39940  -0.447 ± 0.05
82. E3 ubiquitin-protein ligase RSP5 G336T, P39940  -0.461 ± 0.072
83. E3 ubiquitin-protein ligase RSP5 G336S, P39940  -0.471 ± 0.061
84. E3 ubiquitin-protein ligase RSP5 G324F, P39940  -0.48 ± 0.45
85. E3 ubiquitin-protein ligase RSP5 G336M, P39940  -0.531 ± 0.1
86. E3 ubiquitin-protein ligase RSP5 G336F, P39940  -0.544 ± 0.067
87. E3 ubiquitin-protein ligase RSP5 G336W, P39940  -0.558 ± 0.054
88. E3 ubiquitin-protein ligase RSP5 G336E, P39940  -0.562 ± 0.059
89. E3 ubiquitin-protein ligase RSP5 G336L, P39940  -0.575 ± 0.062
90. E3 ubiquitin-protein ligase RSP5 F349L, P39940  -0.648 ± 0.055
91. E3 ubiquitin-protein ligase RSP5 F349M, P39940  -0.662 ± 0.15
92. E3 ubiquitin-protein ligase RSP5 F341P, P39940  -0.669 ± 0.082
93. E3 ubiquitin-protein ligase RSP5 F349G, P39940  -0.703 ± 0.043
94. E3 ubiquitin-protein ligase RSP5 F349A, P39940  -0.708 ± 0.047
95. E3 ubiquitin-protein ligase RSP5 F349V, P39940  -0.739 ± 0.044
96. E3 ubiquitin-protein ligase RSP5 G336P, P39940  -0.755 ± 0.057
97. E3 ubiquitin-protein ligase RSP5 F349P, P39940  -0.804 ± 0.08
98. E3 ubiquitin-protein ligase RSP5 F349I, P39940  -0.814 ± 0.1
99. E3 ubiquitin-protein ligase RSP5 F349S, P39940  -0.83 ± 0.057
100. E3 ubiquitin-protein ligase RSP5 F349K, P39940  -0.837 ± 0.13
101. E3 ubiquitin-protein ligase RSP5 F349R, P39940  -0.937 ± 0.051
102. E3 ubiquitin-protein ligase RSP5 G336V, P39940  -1.11 ± 0.061
103. E3 ubiquitin-protein ligase RSP5 G336I, P39940  -1.3 ± 0.13
